The results in this text go back to patent publication CN116284426A (SUNSHINE GUOJIAN PHARMACEUTICAL SHANGHAI CO LTD, dated 2023).

Experiment [1] has as its target T1, GUCY2C-Fc蛋白 (human GUCY2C extracellular region fused to human IgG1 Fc) (human, UniProt P25092 24-430).
T1 construct: extracellular domain; Made in HEK-293F with an unspecified N-terminal signal peptide; also called 人GUCY2C-Fc蛋白; not shown: human IgG1 Fc at the C-terminus in place of the 6xHis tag
As to the kind of experiment: ELISA, GUCY2C-Fc coated, anti-human IgG Fab HRP.

The target in experiment [2] is T2, GUCY2C on tumour cells (CW2, CW2-GCC#1, T84) (human, UniProt P25092 24-1073).
T2 construct: whole, on cells; Only CW2-GCC#1 is expressly said to express GUCY2C; also called 鸟苷酸环化酶2C; 人结肠癌细胞CW2
As to the kind of experiment: flow cytometry on CW2-GCC#1 cells (GUCY2C-overexpressing CW2).

Experiment [3] concerns the target T1, GUCY2C-Fc蛋白 (human GUCY2C extracellular …). The experiment is described as follows: ELISA, GUCY2C-Fc coated, anti-human IgG Fab HRP (Table 18).
Experiment [4] shares this target. The experiment is described as follows: ELISA, GUCY2C-Fc coated, anti-human IgG Fab HRP (Table 11).
Experiment [5] concerns the target T3, GUCY2C-His蛋白 (human GUCY2C extracellular region with C-terminal 6xHis) (human, UniProt P25092 24-430).
T3 construct: extracellular domain; Made in HEK-293F with an unspecified N-terminal signal peptide; also called 人GUCY2C-His蛋白
As to the kind of experiment: ELISA, GUCY2C-His coated, anti-human IgG Fc HRP.

Experiment [6] concerns the target T3, GUCY2C-His蛋白 (human GUCY2C …). The experiment is described as follows: ELISA, GUCY2C-His coated, anti-human IgG Fab HRP (Table 9).
For experiment [7] the target is unchanged. The experiment is described as follows: ELISA, GUCY2C-His coated, anti-human IgG Fab HRP (Table 17).
Experiment [8] concerns the target T1, GUCY2C-Fc蛋白 (human GUCY2C extracellular …). As to the kind of experiment: indirect ELISA, GUCY2C-Fc coated at 1 ug/mL, anti-mouse HRP.
Experiment [9] has as its target T2, GUCY2C on tumour cells (CW2, CW2-GCC#1, …). As to the kind of experiment: flow cytometry on CW2 human colon cancer cells, anti-mouse PE.
The target in experiment [10] is T3, GUCY2C-His蛋白 (human GUCY2C …). The experiment is described as follows: ELISA, GUCY2C-His coated at 0.1 ug/mL, anti-mouse HRP (Table 4).
The target is the same in experiment [11]. As to the kind of experiment: ELISA, GUCY2C-His coated, anti-human IgG Fc HRP. The source holds these as a separate data set.
Experiment [12] addresses T4, CD3ε-ECD-his (UniProt P07766 23-126).
T4 construct: extracellular domain; also called CD3ε蛋白
As to the kind of experiment: ELISA, CD3ε-ECD-his coated at 1 ug/mL, anti-human IgG Fab HRP (Table 14).

Experiment [13] addresses T4, CD3ε-ECD-his. As to the kind of experiment: ELISA, CD3ε-ECD-his coated; reference SP34.
For experiment [14], the target named is T2, GUCY2C on tumour cells (CW2, CW2-GCC#1, …). As to the kind of experiment: cell-based or functional assay.
For experiment [15] the target is unchanged. The experiment is described as follows: cell-based or functional assay. This is another data set of the same source.
Experiment [16] deals with T4, CD3ε-ECD-his. The experiment is described as follows: ELISA, CD3ε-ECD-his coated at 1 ug/mL (Table 19).
Experiment [17] addresses T1, GUCY2C-Fc蛋白 (human GUCY2C extracellular …). As to the kind of experiment: ELISA, GUCY2C-Fc coated, anti-human IgG Fab HRP (Table 12).
The target in experiment [18] is T3, GUCY2C-His蛋白 (human GUCY2C …). The experiment is described as follows: ELISA, GUCY2C-His coated, anti-human IgG Fab HRP (Table 10).
Experiment [19] has the same target. As to the kind of experiment: ELISA, GUCY2C-His coated at 0.1 ug/mL, anti-mouse HRP (Table 3).

T3 sequence (P25092 other isoform, or with tags, fused parts or gaps): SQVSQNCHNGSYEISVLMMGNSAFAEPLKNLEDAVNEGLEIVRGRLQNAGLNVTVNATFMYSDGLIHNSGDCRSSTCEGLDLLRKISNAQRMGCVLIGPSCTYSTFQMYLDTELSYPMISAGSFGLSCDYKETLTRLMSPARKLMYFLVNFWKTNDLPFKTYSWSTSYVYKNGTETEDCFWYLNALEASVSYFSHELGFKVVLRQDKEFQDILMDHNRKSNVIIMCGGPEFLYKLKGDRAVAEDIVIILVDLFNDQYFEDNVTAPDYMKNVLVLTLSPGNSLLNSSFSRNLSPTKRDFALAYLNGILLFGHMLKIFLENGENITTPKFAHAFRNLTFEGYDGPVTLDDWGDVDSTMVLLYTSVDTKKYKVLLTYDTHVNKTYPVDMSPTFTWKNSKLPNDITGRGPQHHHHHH
T2 sequence (P25092 24-1073): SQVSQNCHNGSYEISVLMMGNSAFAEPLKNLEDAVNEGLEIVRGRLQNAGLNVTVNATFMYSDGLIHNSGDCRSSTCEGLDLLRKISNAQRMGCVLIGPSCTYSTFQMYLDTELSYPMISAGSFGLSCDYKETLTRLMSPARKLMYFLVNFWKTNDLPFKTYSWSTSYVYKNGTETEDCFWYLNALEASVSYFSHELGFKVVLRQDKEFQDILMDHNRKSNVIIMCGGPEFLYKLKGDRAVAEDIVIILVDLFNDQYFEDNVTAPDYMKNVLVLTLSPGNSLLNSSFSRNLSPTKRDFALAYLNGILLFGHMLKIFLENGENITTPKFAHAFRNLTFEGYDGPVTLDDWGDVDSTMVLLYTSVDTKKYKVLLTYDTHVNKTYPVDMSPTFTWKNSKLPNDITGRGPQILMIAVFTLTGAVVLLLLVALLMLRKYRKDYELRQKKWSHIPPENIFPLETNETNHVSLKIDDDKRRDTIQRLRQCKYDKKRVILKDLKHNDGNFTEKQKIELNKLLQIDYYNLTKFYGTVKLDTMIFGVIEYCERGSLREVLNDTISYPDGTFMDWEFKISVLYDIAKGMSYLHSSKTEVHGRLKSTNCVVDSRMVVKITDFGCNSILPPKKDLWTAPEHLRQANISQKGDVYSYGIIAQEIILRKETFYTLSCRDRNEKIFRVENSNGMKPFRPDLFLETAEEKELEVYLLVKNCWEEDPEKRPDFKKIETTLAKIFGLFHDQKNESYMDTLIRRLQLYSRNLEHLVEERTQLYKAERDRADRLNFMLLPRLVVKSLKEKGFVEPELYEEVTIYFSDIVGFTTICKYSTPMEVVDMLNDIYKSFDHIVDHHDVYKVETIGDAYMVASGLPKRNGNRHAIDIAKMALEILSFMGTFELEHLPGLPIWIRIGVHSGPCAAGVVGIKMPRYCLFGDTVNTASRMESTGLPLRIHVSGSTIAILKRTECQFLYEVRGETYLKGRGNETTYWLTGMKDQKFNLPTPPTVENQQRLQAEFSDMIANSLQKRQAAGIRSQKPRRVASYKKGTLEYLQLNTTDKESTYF
T4 sequence (P07766 other isoform, or with tags, fused parts or gaps): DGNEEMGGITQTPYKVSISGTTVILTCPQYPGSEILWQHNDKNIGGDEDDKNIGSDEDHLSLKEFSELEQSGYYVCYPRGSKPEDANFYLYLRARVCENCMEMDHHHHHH
T1 sequence (P25092 24-430 limits assumed): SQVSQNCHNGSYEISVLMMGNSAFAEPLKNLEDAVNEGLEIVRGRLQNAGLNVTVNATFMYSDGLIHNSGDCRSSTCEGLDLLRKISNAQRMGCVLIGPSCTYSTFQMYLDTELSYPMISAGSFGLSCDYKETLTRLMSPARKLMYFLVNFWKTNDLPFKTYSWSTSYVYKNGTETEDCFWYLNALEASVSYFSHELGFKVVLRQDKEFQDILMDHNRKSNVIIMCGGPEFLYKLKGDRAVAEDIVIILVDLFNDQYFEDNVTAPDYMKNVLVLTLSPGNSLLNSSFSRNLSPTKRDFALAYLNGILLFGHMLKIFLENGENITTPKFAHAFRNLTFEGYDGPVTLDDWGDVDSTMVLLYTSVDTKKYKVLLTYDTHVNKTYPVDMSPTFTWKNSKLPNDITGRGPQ

B1: 32H2-Hu (antibody, V domains shown)
VH: EVQLVESGGGLVKPGGSLRLSCAASGFSFRTYAMSWVRQAPGKSLEWVATISSGSSYIYYPDSVKGRFTVSRDNAKNSLYLQMNSLRAEDTAVYYCTCYRMETFEYWGQGTLVTVSS
VL: DVVMTQSPLSLPVTLGQPASISCRSSQSLVYNNGNTYLHWYQQRPGQSPRLLIYKVSNRFSGVPDRFSGSGSGTDFTLKISRVEAEDVGVYFCSQSTHVPLTFGQGTKVEIKR
Consider B1, for which the EC50 in experiment [1] is 0.452 nM; in experiment [2], 96.3 nM; in experiment [3], 0.759 nM; in experiment [4], 0.23 nM; in experiment [5] it was 0.468 nM; in experiment [6], 0.24 nM. In experiment [7], this molecule registered a 50% effective concentration (EC50) of 0.244 nM.

B2: 10D7A7 (antibody, V domains shown)
VH: QVQLKQSGPGLVQPSQSLSITCTVSGFSLTNYGVHWVRQSPGKGLEWLGVIWSGGRKDYNAAFISRLNITKDNSKSQVFFTMNSLHSDDTAIYYCARHGTYPYWYFALWGAGTSVTISS
VL: DIQMTQTTSSLSASLGDRVTISCRASQDISNYLNWYQQKPDGTFKLLVYYTSRLQSGVPSRFSGSGSGTLYSLTISTLEQEDVATYFCQQGKTLPFSFGGGTRLEIK
As for B2, the concentration giving a half-maximal response (EC50) in [8] came out at 0.0307 µg/mL; in [9], 0.137 µg/mL; in experiment [10] it was 0.8 nM.

B3: 10D7-ch (antibody, V domains shown)
VH: B2 VH
VL: DIQMTQTTSSLSASLGDRVTISCRASQDISNYLNWYQQKPDGTFKLLVYYTSRLQSGVPSRFSGSGSGTLYSLTISTLEQEDVATYFCQQGKTLPFSFGGGTRLEIKR
B3: in experiment [11], the concentration giving a half-maximal response (EC50) was 0.113 nM.

B4: SP4VHL-32H2 (bispecific antibody, human IgG1, kappa)
heavy: not shown
light: DVVMTQSPLSLPVTLGQPASISCRSSQSLVYNNGNTYLHWYQQRPGQSPRLLIYKVSNRFSGVPDRFSGSGSGTDFTLKISRVEAEDVGVYFCSQSTHVPLTFGQGTKVEIKRTVAAPSVFIFPPSDEQLKSGTASVVCLLNNFYPREAKVQWKVDNALQSGNSQESVTEQDSKDSTYSLSSTLTLSKADYEKHKVYACEVTHQGLSSPVTKSFNRGEC
notes: The anti-CD3 scFv (VH-L-VL of humanized SP34) sits at the N-terminus of the heavy chain; also called 结构2
Take B4: the EC50 with CD3ε-ECD-his [12] came out at 0.59 nM; in experiment [3] it was 2.83 nM; in [4], 1 nM; in experiment [6] it was 1.86 nM; with CD3ε-ECD-his [16], 0.792 nM; in experiment [7] it was 1.84 nM. For the same molecule, the values for the concentration for a half-maximal effect (EC50) in [17] and in [18] were 1.19 nM and 2.09 nM, respectively. The “fold weaker affinity than SP34” value with CD3ε-ECD-his [13] was approximately 5 fold. In addition, in [14], the “IC50 of T-cell-mediated killing of CW2 cells (CTG, E:T 5:1, 96 h)” value (“IC50 … (CTG, E:T 5:1, 96 h)” for short) was 0.46 nM. For the same molecule, in experiment [15], the “IC50 of T-cell-mediated killing of T84 cells” value was 0.004 nM.

B5: 32H2CH1-SP4VHL (bispecific antibody)
heavy: not shown
light: B4 light
notes: also called 结构7
Take B5: the 50% effective concentration (EC50) with CD3ε-ECD-his [12] was determined as 0.37 nM; in [3] it was 0.521 nM; in experiment [4], 0.24 nM; in [6] it was 0.29 nM; in the experiment with CD3ε-ECD-his [16], 0.309 nM; in experiment [7] it was 0.188 nM. Besides, the half-maximal effective concentration (EC50) in [17] was 0.33 nM; in [18], 0.23 nM. The “fold weaker affinity than SP34” value in the experiment with CD3ε-ECD-his [13] was approximately 2 fold. In experiment [14], the “IC50 … (CTG, E:T 5:1, 96 h)” value was found to be 0.05 nM.

B6: 32H2Fab-SP4VHL (bispecific antibody)
heavy: EVQLVESGGGLVKPGGSLRLSCAASGFSFRTYAMSWVRQAPGKSLEWVATISSGSSYIYYPDSVKGRFTVSRDNAKNSLYLQMNSLRAEDTAVYYCTCYRMETFEYWGQGTLVTVSSASTKGPSVFPLAPSSKSTSGGTAALGCLVKDYFPEPVTVSWNSGALTSGVHTFPAVLQSSGLYSLSSVVTVPSSSLGTQTYICNVNHKPSNTKVDKKVEPKSCGGGGSGGGGSGGGGSEVQLVESGGGLVQPGGSLRLSCAASGFTFNTYAMNWVRQAPGKGLEWVARIRSKYNNYATYYADSVKDRFTISRDDSKNTLYLQMNSLRAEDTAVYYCVRHGNFGNSYVSWFAYWGQGTLVTVSSGGGGSGGGGSGGGGSGGGGSQAVVTQEPSLTVSPGGTVTLTCRSSTGAVTTSNYANWVQQKPGQAPRGLIGGTNKRAPGVPARFSGSLLGGKAALTLSGAQPEDEAEYYCALWYSNLWVFGQGTKVEIK
light: B4 light
notes: also called 32H2Fab-SPVHL; 结构10
Take B6: the EC50 in the experiment with CD3ε-ECD-his [12] worked out at 6.12 nM; in experiment [4] it was 5.08 nM; in experiment [6] it was 35.5 nM; in experiment [17], 1.04 nM; in experiment [18] it was 30.1 nM. In addition, in [14], the “IC50 … (CTG, E:T 5:1, 96 h)” value is 51 nM. In experiment [15], the “IC50 of T-cell-mediated killing of T84 cells” value was found to be 1.25 nM.

B7: 43D11B1D2 (antibody, V domains shown)
VH: DVKLVESGGVLVKLGGSLKLSCAASGFTFSGYFMSWVRQTPEKRLELVAAINSDGGSTYYPDTVKGRFTISRDNAKNTLYLQMSSLKSEDTALYYCARLARYLYAMDYWGQGTSVTVSS
VL: QIVLTQSPAIMSASPGEKVTMTCSASSSVSYMYWYQQKPGSSPRLLIYDTSNLASGVPVRFSGSGSGTSYSLTISRMEAEDAATYYCQQWTSSSWTFGGGTKLEIK
Turning to B7, the EC50 in [19] came out at 0.99 nM; in experiment [8], 0.018 µg/mL; in experiment [9], 0.365 µg/mL.

B8: 43D11-ch (antibody, V domains shown)
VH: B7 VH
VL: QIVLTQSPAIMSASPGEKVTMTCSASSSVSYMYWYQQKPGSSPRLLIYDTSNLASGVPVRFSGSGSGTSYSLTISRMEAEDAATYYCQQWTSSSWTFGGGTKLEIKR
Consider B8, for which the EC50 in [11] came to 5.19 nM.

B9: 32H2G1A1 (antibody, V domains shown)
VH: EVMLVESGGDLVKPGGSLKLSCAASGFSFRTYAMSWVRQSPEKSLEWVATISSGSSYIYYPDSVKGRFTVFRDNAKNTLYLQMSSLRSEDSAIYYCTCYRMETFEYWGQGTTLTVSS
VL: DVVMTQTPLSLPVSLGDEASISCRSSQSLVYNNGNTYLHWYLQKPGQSPKLLIYKVSNRFSGVPDRFSGSGSGTDFTLKISRVEAEDLGVYFCSQSTHVPLTFGAGTKLELK
B9: the concentration giving a half-maximal response (EC50) was determined as 0.00709 µg/mL in [8], 9.6 µg/mL in experiment [9] and 0.26 nM in experiment [10].

B10: 32H2-ch (antibody, V domains shown)
VH: B9 VH
VL: DVVMTQTPLSLPVSLGDEASISCRSSQSLVYNNGNTYLHWYLQKPGQSPKLLIYKVSNRFSGVPDRFSGSGSGTDFTLKISRVEAEDLGVYFCSQSTHVPLTFGAGTKLELKR
B10 came in with an EC50 in experiment [11] of 0.141 nM. This counts as sub-nanomolar.
